Experimental data from patent US20150218277A1.
Ends that are not written are not given here.

Key:
[1] = target: HSP90 endogenous to CHO cells (Hamster), P46633; test: cell-based or functional assay
[2] = target: T1, Heat Shock Protein 90 (HSP90), endogenous, in human cell lines (human), P07900; test: cell-based or functional assay
[3] = target: T1, Heat Shock Protein 90 (HSP90), …; test: streptavidin affinity purification of biotinylated peptide from lysates of cancer cells (UMSCC1, H1975), immunoblot for HSP90

Chain of HSP90 endogenous to CHO cells (Hamster), P46633 (P46633 whole entry): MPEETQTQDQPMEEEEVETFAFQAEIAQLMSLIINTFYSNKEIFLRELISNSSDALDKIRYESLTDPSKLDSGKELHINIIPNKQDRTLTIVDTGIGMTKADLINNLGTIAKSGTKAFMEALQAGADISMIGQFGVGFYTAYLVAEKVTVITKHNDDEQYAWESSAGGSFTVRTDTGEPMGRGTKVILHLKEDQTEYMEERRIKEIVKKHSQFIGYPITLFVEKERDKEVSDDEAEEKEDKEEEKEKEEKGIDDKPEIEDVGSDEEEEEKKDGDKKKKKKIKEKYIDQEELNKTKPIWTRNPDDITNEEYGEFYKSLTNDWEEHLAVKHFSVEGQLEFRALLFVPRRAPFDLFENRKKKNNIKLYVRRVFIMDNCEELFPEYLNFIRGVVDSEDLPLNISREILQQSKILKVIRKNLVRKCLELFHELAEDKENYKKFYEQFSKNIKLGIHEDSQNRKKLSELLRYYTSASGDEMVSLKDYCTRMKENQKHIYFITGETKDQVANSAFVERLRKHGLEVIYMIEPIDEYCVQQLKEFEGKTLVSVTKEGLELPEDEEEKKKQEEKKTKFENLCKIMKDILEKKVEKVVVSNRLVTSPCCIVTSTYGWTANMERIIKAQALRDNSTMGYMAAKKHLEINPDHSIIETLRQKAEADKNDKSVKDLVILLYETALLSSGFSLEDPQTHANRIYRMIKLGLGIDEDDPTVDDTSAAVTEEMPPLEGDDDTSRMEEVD

YGRKKRRQRRRNHVPSDVC (not fully specified (N-terminus)) [Non Specific Peptide Biotin-[…]-NHVPSDVC] showed a clonogenic survival, CHO cells (EGFR negative) (surviving fraction) [1] of 1.12, a clonogenic survival, A549 cells (WT-EGFR) (surviving fraction) [2] of 0.81 and a clonogenic survival, H1975 cells (T790M-EGFR) (surviving fraction) [2] of 0.77. The clonogenic survival, H3255 cells (L858R-EGFR) (surviving fraction) [2] was 1, the clonogenic survival, HeLa cells (WT-EGFR) (surviving fraction) [2] was 0.92 and the clonogenic survival, Het1A normal epithelial cells (WT-EGFR) (surviving fraction) [2] was 0.91. It also gave a clonogenic survival, MRC5 normal fibroblasts (WT-EGFR) (surviving fraction) [2] of 1.04, a clonogenic survival, UMSCC1 cells (WT-EGFR) (surviving fraction) [2] of 1.02 and a clonogenic survival, UMSCC10B cells (WT-EGFR) (surviving fraction) [2] of 0.96. For the same binder, the clonogenic survival, UMSCC74B cells (WT-EGFR) (surviving fraction) [2] was 0.89.

YGRKKRRQRRRSVDNPHVC (not fully specified (N-terminus)) [Specific Peptide Biotin-[…]-SVDNPHVC] was tested, and the fold increase in HSP90 protein binding [3] was 5 to 10 fold, the clonogenic survival, CHO cells (EGFR negative) (surviving fraction) [1] was 0.98 and the clonogenic survival, A549 cells (WT-EGFR) (surviving fraction) [2] was 0.57. For the same binder, the clonogenic survival, H1975 cells (T790M-EGFR) (surviving fraction) [2] was 0.4, the clonogenic survival, H3255 cells (L858R-EGFR) (surviving fraction) [2] was 0.71 and the clonogenic survival, HeLa cells (WT-EGFR) (surviving fraction) [2] was 0.72. It also gave a clonogenic survival, Het1A normal epithelial cells (WT-EGFR) (surviving fraction) [2] of 1.02, a clonogenic survival, MRC5 normal fibroblasts (WT-EGFR) (surviving fraction) [2] of 1.01 and a clonogenic survival, UMSCC1 cells (WT-EGFR) (surviving fraction) [2] of 0.76. The clonogenic survival, UMSCC10B cells (WT-EGFR) (surviving fraction) [2] was 0.63 and the clonogenic survival, UMSCC74B cells (WT-EGFR) (surviving fraction) [2] was 0.74.
